According to US20090305241, “DNA demethylases and uses thereof” (REGENTS OF THE UNIVERSITY OF CALIFORNIA, published 2009):

Columns and labels:
DME D1304N (MBP-Δ537DME) = molecular target: T1, DME D1304N (MBP-Δ537DME) (UniProt Q8LK56 SEQ:538-1729, D1304N); test: no trapping or lyase activity detected (catalytic mutant); settings: tags: N-terminal MBP (pMAL-c2x); label: 5'-32P top strand
T1 sequence: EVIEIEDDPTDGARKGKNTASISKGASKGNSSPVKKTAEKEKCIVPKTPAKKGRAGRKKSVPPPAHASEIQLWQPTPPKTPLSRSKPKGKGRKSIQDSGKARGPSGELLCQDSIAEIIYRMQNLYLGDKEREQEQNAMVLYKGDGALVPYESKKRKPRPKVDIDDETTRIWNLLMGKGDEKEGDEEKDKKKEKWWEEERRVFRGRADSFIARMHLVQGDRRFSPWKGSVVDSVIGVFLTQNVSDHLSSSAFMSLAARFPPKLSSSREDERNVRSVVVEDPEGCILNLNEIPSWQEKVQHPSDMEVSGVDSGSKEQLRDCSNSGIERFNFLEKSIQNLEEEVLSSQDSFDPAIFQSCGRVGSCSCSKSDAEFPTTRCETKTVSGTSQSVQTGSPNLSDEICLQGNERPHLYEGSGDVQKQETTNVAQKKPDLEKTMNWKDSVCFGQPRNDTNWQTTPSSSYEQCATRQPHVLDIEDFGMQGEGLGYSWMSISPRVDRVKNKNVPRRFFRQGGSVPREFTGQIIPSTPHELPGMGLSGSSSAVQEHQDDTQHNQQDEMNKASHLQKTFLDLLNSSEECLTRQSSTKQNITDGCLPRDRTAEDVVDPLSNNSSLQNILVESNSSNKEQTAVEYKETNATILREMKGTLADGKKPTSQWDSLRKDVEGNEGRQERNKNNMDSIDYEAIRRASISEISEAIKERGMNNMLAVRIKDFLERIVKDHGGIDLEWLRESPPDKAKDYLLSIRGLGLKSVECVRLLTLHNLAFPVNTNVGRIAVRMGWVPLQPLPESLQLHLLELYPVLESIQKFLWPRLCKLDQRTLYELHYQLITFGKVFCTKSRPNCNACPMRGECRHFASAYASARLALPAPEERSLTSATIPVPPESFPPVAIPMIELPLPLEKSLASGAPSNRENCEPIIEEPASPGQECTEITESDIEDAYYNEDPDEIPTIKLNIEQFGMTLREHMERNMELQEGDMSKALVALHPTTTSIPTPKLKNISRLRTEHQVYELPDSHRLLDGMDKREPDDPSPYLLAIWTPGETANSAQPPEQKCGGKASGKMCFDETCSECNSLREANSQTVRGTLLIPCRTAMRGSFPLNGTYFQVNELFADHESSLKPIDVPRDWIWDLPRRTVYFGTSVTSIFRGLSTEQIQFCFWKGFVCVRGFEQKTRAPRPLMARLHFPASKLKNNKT
Method: (§1) 5′-labeled oligonucleotide substrates (13.3 nM) were incubated with DME protein (250 nM) in a 15 μl reaction with 40 mM HEPES-KOH (pH 8.0), 0.1 M KCl, 0.1 mM EDTA, 0.5 mM dithiothreitol, and 200 μg/mL BSA at 37° for 1 hr. The reaction was terminated with 15 μl of 95% formamide, 20 mM EDTA, 0.05% bromophenol blue, 0.05% xylene cyanol FF and boiled for 5 min. To induce […], NaOH was added at a final concentration of 0.1 M and the reaction was boiled for 7 min. Products were fractionated on a 15% polyacrylamide gel containing 7.5 M urea and 1×TBE. Electrophoresis was done at 1000V for 4 hrs with a Hoefer SQ3 gel apparatus. The gel was exposed to Kodak BioMax MR film at −80°. Methods for purification of recombinant DME, oligonucleotide substrates, NaBH₄ trapping, and toxicity in E. coli are in the Supplemental Experimental Procedures.
(§2) 5′-labeled oligonucleotide substrates (13.3 nM) were incubated with DME protein (250 nM) in a 15 μl reaction with 40 mM HEPES-KOH (pH 8.0), 0.1 M KCl, 0.1 mM EDTA, 0.5 mM dithiothreitol, and 200 μg/mL BSA at 37°. After 1 hr of incubation, 1 M NaBH₄ was added to a final concentration of 100 mM and the reaction tubes were placed at 37° for an additional 10 min. An equal volume of 2×SDS-PAGE loading buffer (90 mM Tris-HCl, pH 6.8, 20% glycerol, 2% SDS, 0.02% bromophenol blue, 100 mM dithiothreitol) was added to terminate the trapping reaction. […]

DME K1286Q (MBP-Δ537DME) = molecular target: T2, DME K1286Q (MBP-Δ537DME) (UniProt Q8LK56 SEQ:538-1729, K1286Q); test: as above; settings: tags: N-terminal MBP; label: 5'-32P top strand
T2 sequence: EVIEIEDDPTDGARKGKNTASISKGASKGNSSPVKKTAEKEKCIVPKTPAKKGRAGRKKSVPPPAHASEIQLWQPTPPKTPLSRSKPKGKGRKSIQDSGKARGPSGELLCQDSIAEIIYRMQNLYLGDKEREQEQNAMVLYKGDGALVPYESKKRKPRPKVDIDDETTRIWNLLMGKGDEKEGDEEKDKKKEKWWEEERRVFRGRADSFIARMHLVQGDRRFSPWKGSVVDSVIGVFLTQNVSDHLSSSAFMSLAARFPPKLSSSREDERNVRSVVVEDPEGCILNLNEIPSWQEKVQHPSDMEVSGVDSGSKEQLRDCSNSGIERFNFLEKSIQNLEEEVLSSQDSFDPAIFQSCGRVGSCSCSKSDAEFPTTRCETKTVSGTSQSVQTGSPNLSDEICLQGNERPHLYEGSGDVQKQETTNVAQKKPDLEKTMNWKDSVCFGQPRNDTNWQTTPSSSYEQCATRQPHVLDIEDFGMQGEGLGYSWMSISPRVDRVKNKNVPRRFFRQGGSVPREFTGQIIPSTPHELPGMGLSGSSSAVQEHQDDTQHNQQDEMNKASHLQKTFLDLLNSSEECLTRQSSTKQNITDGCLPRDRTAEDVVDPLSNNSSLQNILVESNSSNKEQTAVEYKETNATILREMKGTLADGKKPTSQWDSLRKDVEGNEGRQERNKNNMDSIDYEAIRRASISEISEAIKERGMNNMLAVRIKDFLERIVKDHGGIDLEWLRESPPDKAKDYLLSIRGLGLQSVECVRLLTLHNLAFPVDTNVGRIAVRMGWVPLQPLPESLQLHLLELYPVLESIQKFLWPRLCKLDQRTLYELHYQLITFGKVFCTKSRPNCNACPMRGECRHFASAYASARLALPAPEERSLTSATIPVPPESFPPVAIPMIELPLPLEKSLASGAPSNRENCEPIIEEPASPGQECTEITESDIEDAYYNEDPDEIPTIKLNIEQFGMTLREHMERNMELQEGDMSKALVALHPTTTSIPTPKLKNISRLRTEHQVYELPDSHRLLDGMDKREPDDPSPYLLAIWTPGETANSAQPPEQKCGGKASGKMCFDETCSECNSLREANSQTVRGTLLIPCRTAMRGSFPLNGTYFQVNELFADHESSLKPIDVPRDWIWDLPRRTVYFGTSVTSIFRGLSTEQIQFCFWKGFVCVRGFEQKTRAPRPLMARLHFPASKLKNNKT
Method: as §1, §2

[1] = molecular target: T3, DME (MBP-Δ537DME, wild-type glycosylase domain) (UniProt Q8LK56 SEQ:538-1729); test: NaBH4-trapped covalent complex (~200 kd); 40 mM HEPES-KOH pH 8.0, 0.1 M KCl, 37 C; settings: tags: N-terminal MBP (pMAL-c2x), expressed in E. coli Rosetta; label: 5'-32P top strand
T3 chain: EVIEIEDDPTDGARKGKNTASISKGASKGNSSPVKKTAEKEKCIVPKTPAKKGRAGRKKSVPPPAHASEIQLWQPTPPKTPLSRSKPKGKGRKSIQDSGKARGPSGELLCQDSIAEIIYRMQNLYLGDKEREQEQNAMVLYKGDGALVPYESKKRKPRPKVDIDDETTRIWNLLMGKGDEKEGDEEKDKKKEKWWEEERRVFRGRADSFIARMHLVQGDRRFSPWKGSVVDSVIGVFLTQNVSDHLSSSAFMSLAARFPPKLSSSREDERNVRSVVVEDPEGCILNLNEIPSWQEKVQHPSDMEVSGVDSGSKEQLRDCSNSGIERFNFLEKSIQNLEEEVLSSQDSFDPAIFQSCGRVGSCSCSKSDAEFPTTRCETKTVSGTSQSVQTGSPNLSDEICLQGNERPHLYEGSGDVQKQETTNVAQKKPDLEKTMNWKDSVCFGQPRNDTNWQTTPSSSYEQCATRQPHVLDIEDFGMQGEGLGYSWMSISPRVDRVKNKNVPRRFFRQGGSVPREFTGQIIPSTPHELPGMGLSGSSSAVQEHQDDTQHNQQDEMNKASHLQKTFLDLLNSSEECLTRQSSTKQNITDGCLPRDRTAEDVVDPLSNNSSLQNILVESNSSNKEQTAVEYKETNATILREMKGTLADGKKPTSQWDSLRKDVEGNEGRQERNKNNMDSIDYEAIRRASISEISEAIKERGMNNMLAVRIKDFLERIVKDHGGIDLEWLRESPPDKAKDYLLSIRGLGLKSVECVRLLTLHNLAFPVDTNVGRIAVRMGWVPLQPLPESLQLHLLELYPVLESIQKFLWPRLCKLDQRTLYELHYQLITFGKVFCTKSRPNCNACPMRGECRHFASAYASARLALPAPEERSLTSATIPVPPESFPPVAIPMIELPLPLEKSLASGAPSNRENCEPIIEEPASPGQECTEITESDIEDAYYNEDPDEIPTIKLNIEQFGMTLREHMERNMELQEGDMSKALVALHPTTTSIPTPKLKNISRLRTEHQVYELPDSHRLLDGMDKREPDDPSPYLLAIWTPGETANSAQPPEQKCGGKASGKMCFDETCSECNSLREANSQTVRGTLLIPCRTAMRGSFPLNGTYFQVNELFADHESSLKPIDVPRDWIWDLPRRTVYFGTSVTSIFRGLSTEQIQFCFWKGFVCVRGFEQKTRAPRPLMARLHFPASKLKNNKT
Excerpt: DME breaks the phosophodiester linkage on the 3′-side of a 5-methylcytosine residue (hemimethylated substrate) and generates end-labeled DNAs that migrate on denaturing polyacrylamide gels at the predicted position for β-elimination products (FIG. 3C). The subsequent cleavage of the phosphodiester linkage on the 5′-side yields δ-elimination products through the same mechanism found in related DNA glycosylases (Bhagwat, M. and Gerlt, J. A., Biochemistry, 35, 659-665 (1996)). Treatment of products with strong base (NaOH) prior to gel electrophoresis confirmed the δ-elimination process at the predicted position (FIG. 3C). […] No lyase activity (FIG. 3E) or covalent trapping (FIG. 3D) was detected when DME was incubated with non-methylated oligonucleotides, or when hemimethylated substrate was incubated with no enzyme or mutant enzymes (D1304N or K1286Q). Plants have 5-methylcytosine in the three sequence contexts; CpG, CpNpG, and CpNpN (Bender, J., Ann Rev Plant Biology, 55, 41-68 (2004)). DME has activity on 5-methylcytosine in each of these sequence contexts (FIG. 3E). We detected no DME activity when single-stranded oligonucleotides with 5-methylcytosine were used in the reaction (data not shown). […]

[2] = molecular target: T3, DME (MBP-Δ537DME, wild-type glycosylase …); test: NaBH4-trapped covalent complex; settings: tags: N-terminal MBP (pMAL-c2x), expressed in E. coli Rosetta; label: 5'-32P top strand; T/G mismatch
Method: 5′-labeled oligonucleotide substrates (13.3 nM) were incubated with DME protein (250 nM) in a 15 μl reaction with 40 mM HEPES-KOH (pH 8.0), 0.1 M KCl, 0.1 mM EDTA, 0.5 mM dithiothreitol, and 200 μg/mL BSA at 37°. After 1 hr of incubation, 1 M NaBH₄ was added to a final concentration of 100 mM and the reaction tubes were placed at 37° for an additional 10 min. An equal volume of 2×SDS-PAGE loading buffer (90 mM Tris-HCl, pH 6.8, 20% glycerol, 2% SDS, 0.02% bromophenol blue, 100 mM dithiothreitol) was added to terminate the trapping reaction. Products were boiled for 10 min before loading onto a 10% SDS-PAGE gel. The wet gel was exposed to Kodak Biomax MS film for 12-18 h at −80°.

B1: hemimethylated meCpG (MEA-1.6F18meC / MEA-1.6R) (dsDNA)
DNA 1: CTATACCTCCTCAACTCCGGTCACCGTCTCCGGCG
DNA 2: CGCCGGAGACGGTGACCGGAGTTGAGGAGGTATAG
modifications: 5mC at position 18 of top strand [top 18 (5mC)]
binding result (DME D1304N (MBP-Δ537DME)): no binding
binding result (DME K1286Q (MBP-Δ537DME)): no binding
binding result [1]: binds

B2: T/G mismatch (MEA-1.6F18T / MEA-1.6R) (dsDNA)
DNA 1: CTATACCTCCTCAACTCTGGTCACCGTCTCCGGCG
DNA 2: CGCCGGAGACGGTGACCGGAGTTGAGGAGGTATAG
binding result [2]: binds
